Laboratory results as given in article PMC9482650, “Quantitative fragmentomics allow affinity mapping of interactomes” (Nature Communications, 2022).

T1: MPDZ_13, O75970
T1 sequence (O75970 1982-2070, limits assumed, looked up): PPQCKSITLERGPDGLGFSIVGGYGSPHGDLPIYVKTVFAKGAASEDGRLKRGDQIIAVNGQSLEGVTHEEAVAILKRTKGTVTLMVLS

T2: PDZD2_6, O15018
T2 sequence (O15018 2745-2839, limits assumed, looked up): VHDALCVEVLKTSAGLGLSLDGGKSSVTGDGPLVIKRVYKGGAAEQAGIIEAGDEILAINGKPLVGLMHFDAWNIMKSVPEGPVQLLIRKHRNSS

T3: SHROOM2, Q13796
T3 sequence (Q13796 21-118, limits assumed, looked up): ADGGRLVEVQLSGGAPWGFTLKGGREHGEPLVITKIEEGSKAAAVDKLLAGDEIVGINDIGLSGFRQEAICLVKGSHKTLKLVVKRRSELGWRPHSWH

T4: USH1C_2, Q9Y6N9
T4 sequence (Q9Y6N9 206-303, limits assumed, looked up): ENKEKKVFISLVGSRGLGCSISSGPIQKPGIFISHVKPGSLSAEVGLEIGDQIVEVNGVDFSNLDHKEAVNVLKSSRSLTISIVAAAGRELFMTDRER

T5: SIPA1L3, O60292
T5 sequence (O60292 961-1052, limits assumed, looked up): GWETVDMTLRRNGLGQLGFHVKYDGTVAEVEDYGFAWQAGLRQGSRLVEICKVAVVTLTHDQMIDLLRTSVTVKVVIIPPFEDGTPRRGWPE

T6: GRIP1_1, Q9Y3R0
T6 sequence (Q9Y3R0 48-146, limits assumed, looked up): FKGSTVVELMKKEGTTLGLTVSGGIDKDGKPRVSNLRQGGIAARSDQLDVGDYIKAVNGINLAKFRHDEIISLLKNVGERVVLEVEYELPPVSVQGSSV

T7: SHROOM4, Q9ULL8
T7 sequence (Q9ULL8 5-102, limits assumed, looked up): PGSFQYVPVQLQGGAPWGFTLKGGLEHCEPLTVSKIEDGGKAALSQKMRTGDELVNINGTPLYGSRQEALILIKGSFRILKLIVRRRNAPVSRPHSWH

T8: APBA3_2, O96018
T8 sequence (O96018 480-570, limits assumed, looked up): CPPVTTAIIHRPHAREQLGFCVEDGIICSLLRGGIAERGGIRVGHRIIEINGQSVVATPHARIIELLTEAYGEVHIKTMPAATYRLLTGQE

T9: USH1C_1, Q9Y6N9
T9 sequence (Q9Y6N9 82-179, limits assumed, looked up): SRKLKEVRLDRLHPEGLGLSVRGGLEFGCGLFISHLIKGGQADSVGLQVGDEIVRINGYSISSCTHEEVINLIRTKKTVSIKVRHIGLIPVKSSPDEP

T10: MLLT4, P55196
T10 sequence (P55196 1002-1103, limits assumed, looked up): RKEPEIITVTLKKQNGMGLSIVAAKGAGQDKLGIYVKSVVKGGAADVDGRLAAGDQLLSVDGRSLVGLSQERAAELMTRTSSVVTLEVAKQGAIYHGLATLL

T11: TJP3_2, O95049
T11 sequence (O95049 190-282, limits assumed, looked up): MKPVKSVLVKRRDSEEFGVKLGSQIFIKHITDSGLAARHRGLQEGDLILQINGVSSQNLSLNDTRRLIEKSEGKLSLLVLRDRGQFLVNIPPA

T12: LNX2_1, Q8N448
T12 sequence (Q8N448 228-328, limits assumed, looked up): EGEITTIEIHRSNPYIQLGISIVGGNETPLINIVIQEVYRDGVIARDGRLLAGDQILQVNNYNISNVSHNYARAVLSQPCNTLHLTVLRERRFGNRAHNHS

T13: SHANK3, Q9BYB0
T13 sequence (Q9BYB0 641-750, limits assumed, looked up): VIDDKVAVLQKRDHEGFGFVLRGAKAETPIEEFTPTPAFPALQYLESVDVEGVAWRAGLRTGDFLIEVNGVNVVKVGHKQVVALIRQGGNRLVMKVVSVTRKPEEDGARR

T14: DVL1, O14640
T14 sequence (O14640 246-333, limits assumed, looked up): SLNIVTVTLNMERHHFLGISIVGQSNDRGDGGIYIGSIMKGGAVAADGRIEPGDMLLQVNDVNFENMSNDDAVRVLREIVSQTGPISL

T15: RGS12, O14924
T15 sequence (O14924 17-108, limits assumed, looked up): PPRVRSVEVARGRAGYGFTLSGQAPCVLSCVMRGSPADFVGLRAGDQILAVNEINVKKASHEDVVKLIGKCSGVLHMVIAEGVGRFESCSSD

B1: HPV16-E6_-2P, P03126 (peptide)
chain: SSRTRRETQL
B2: WNV-NS5, Q9Q6P4 (peptide)
chain: RYEDTTLVEDTVL
B3: HBV-HBc, P03193 (peptide)
chain: RRRRSQSRESQC
B4: SARS-Cov2-N, P0DTC9 (peptide)
chain: QQSMSSADSTQA

Experiments:
Test in all cases: holdup assay
Set-up in all cases: key: below the threshold = too weak to quantify, mostly under pKd 3.1 to 4
MPDZ_13, O75970 = molecular target: T1, MPDZ_13, O75970
PDZD2_6, O15018 = molecular target: T2, PDZD2_6, O15018
SHROOM2, Q13796 = molecular target: T3, SHROOM2, Q13796
MAST3, O60307 = molecular target: MAST3, O60307
USH1C_2, Q9Y6N9 = molecular target: T4, USH1C_2, Q9Y6N9
SIPA1L3, O60292 = molecular target: T5, SIPA1L3, O60292
GRIP1_1, Q9Y3R0 = molecular target: T6, GRIP1_1, Q9Y3R0
SHROOM4, Q9ULL8 = molecular target: T7, SHROOM4, Q9ULL8
PARD3B_2, Q8TEW8 = molecular target: PARD3B_2, Q8TEW8
APBA3_2, O96018 = molecular target: T8, APBA3_2, O96018
USH1C_1, Q9Y6N9 = molecular target: T9, USH1C_1, Q9Y6N9
RGS3, P49796-9 = molecular target: RGS3, P49796-9
MLLT4, P55196 = molecular target: T10, MLLT4, P55196
MAGI1_6, Q96QZ7 = molecular target: MAGI1_6, Q96QZ7
TJP3_2, O95049 = molecular target: T11, TJP3_2, O95049
SDCBP_1, O00560 = molecular target: SDCBP_1, O00560
LNX2_1, Q8N448 = molecular target: T12, LNX2_1, Q8N448
RIMS1, Q86UR5 = molecular target: RIMS1, Q86UR5
SHANK3, Q9BYB0 = molecular target: T13, SHANK3, Q9BYB0
DVL1, O14640 = molecular target: T14, DVL1, O14640; details: plain residues with an end cap or a label only (N-terminal biotin on a linker: (peg)3)
RGS12, O14924 = molecular target: T15, RGS12, O14924; details: plain residues with an end cap or a label only (N-terminal biotin on a linker: (peg)3)
[1] = modified: phospho on T at position -2 from the C-terminal residue
[2] = plain residues with an end cap or a label only (N-terminal biotin on a linker: (peg)3)

RGS3, P49796-9, sequence (P49796 other isoform, or with tags, fused parts or gaps): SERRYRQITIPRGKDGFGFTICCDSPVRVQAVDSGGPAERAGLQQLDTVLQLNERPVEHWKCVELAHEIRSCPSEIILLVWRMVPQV
PARD3B_2, Q8TEW8, sequence (Q8TEW8 376-471): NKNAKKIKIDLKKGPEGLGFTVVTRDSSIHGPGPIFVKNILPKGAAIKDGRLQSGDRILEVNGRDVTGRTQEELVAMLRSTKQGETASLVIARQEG
MAGI1_6, Q96QZ7, sequence (Q96QZ7 1146-1238): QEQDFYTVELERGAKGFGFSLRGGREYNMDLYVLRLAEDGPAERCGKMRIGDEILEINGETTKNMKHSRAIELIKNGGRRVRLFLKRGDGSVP
RIMS1, Q86UR5, sequence (Q86UR5 584-692): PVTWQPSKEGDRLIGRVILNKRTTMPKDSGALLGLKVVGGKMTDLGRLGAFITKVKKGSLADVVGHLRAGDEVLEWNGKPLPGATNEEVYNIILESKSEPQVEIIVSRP
MAST3, O60307, sequence (O60307 945-1048): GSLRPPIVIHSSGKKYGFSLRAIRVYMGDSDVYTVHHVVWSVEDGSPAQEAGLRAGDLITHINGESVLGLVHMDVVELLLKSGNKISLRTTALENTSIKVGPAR
SDCBP_1, O00560, sequence (O00560 111-198): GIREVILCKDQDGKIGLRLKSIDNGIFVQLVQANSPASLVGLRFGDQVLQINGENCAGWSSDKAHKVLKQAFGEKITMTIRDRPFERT

Binder | pKd (DVL1, O14640) | pKd (MPDZ_13, O75970; [2]) | pKd (PDZD2_6, O15018; [2]) | pKd (SHROOM2, Q13796; [2]) | pKd (MAST3, O60307; [2]) | pKd (USH1C_2, Q9Y6N9; [2]) | pKd (SIPA1L3, O60292; [2]) | pKd (GRIP1_1, Q9Y3R0; [2]) | pKd (SHROOM4, Q9ULL8; [2]) | pKd (PARD3B_2, Q8TEW8; [2]) | pKd (APBA3_2, O96018; [2]) | pKd (USH1C_1, Q9Y6N9; [2]) | pKd (RGS3, P49796-9; [2]) | pKd (MLLT4, P55196; [2]) | pKd (MAGI1_6, Q96QZ7; [2]) | pKd (TJP3_2, O95049; [2]) | pKd (RGS12, O14924) | pKd (SDCBP_1, O00560; [2]) | pKd (LNX2_1, Q8N448; [2]) | pKd (RIMS1, Q86UR5; [2]) | also measured
B1 |  |  |  |  |  |  |  |  |  |  |  |  |  |  |  |  |  |  |  |  | pKd (MPDZ_13, O75970; [1]): below the threshold; pKd (PDZD2_6, O15018; [1]): below the threshold; pKd (SHROOM2, Q13796; [1]): below the threshold; pKd (MAST3, O60307; [1]): below the threshold; pKd (USH1C_2, Q9Y6N9; [1]): 4.45; pKd (SIPA1L3, O60292; [1]): below the threshold; pKd (GRIP1_1, Q9Y3R0; [1]): 4.61; pKd (SHROOM4, Q9ULL8; [1]): below the threshold; pKd (PARD3B_2, Q8TEW8; [1]): below the threshold; pKd (APBA3_2, O96018; [1]): below the threshold; pKd (USH1C_1, Q9Y6N9; [1]): below the threshold; pKd (RGS3, P49796-9; [1]): below the threshold; pKd (MLLT4, P55196; [1]): below the threshold; pKd (MAGI1_6, Q96QZ7; [1]): below the threshold; pKd (TJP3_2, O95049; [1]): below the threshold; pKd (SDCBP_1, O00560; [1]): below the threshold; pKd (LNX2_1, Q8N448; [1]): below the threshold; pKd (RIMS1, Q86UR5; [1]): below the threshold; pKd (SHANK3, Q9BYB0; [1]): below the threshold
B2 | below the threshold | below the threshold | below the threshold | 4.14 | below the threshold | below the threshold | below the threshold | below the threshold | below the threshold | below the threshold | below the threshold | below the threshold | below the threshold | below the threshold | below the threshold | 4.25 | below the threshold | below the threshold | below the threshold | below the threshold | pKd (SHANK3, Q9BYB0; [2]): 4.59
B3 | below the threshold | below the threshold | below the threshold | below the threshold | below the threshold | 4.09 | 3.96 | below the threshold | below the threshold | 3.85 | below the threshold | below the threshold | below the threshold | below the threshold | below the threshold | below the threshold | below the threshold | below the threshold | below the threshold | below the threshold | pKd (SHANK3, Q9BYB0; [2]): below the threshold
B4 | below the threshold | below the threshold | below the threshold | below the threshold | below the threshold | below the threshold | below the threshold | below the threshold | below the threshold | below the threshold | below the threshold | below the threshold | below the threshold | below the threshold | below the threshold | below the threshold | below the threshold | below the threshold | below the threshold | below the threshold | pKd (SHANK3, Q9BYB0; [2]): below the threshold
